Experimental data reported in PMC7553327, “The vimentin rod domain blocks P-selectin-P-selectin glycoprotein ligand 1 interactions to attenuate leukocyte adhesion to inflamed endothelium” (PLoS ONE, 2020).

B1: recombinant human PSGL-1/Fc (Sino Biological Inc.) (Fc fusion, UniProt Q14242 42-320, looked up)
chain: QATEYEYLDYDFLPETEPPEMLRNSTDTTPLTGPGTPESTTVEPAARRSTGLDAGGAVTELTTELANMGNLSTDSAAMEIQTTQPAATEAQTTQPVPTEAQTTPLAATEAQTTRLTATEAQTTPLAATEAQTTPPAATEAQTTQPTGLEAQTTAPAAMEAQTTAPAAMEAQTTPPAAMEAQTTQTTAMEAQTTAPEATEAQTTQPTATEAQTTPLAAMEALSTEPSATEALSMEPTTKRGLFIPFSVSSVTHKGIPMAASNLSVNYPVGAPDHISVKQC
notes: P-selectin glycoprotein ligand-1, human; No catalogue number printed; source: bought: Sino Biological Inc
B2: recombinant human rod domain of vimentin (domain or fragment)
chain: not shown
notes: vimentin, human, rod domain, aa residues 96-407 (base pairs 717-1,652 of NM_00380.3 as printed); 38.2 kDa used for concentration; Labelled with IR800CW dye for the SPOT-Psel array; Dimerized in non-reducing SDS-PAGE. ΔrhRod is the same protein after 10 minutes in boiling water; also called rhRod; rod domain of recombinant vimentin

Experiments:
P-selectin/Fc [1] = target: T1, P-selectin/Fc (human, UniProt P16109 42-771); assay: BLI; P-sel/Fc immobilised on AR2G sensors; PSGL-1/Fc (Sino Biological) as analyte, 0–1,000 nM; DPBS; in duplicate; details: both partners purified
T1 construct: P-selectin; Labelled with IR800CW dye for the SPOT-Vim array; No catalogue number printed; also called P-sel/Fc; P-sel/Fc-IR800; source: bought: R & D Systems
T1 sequence (looked up): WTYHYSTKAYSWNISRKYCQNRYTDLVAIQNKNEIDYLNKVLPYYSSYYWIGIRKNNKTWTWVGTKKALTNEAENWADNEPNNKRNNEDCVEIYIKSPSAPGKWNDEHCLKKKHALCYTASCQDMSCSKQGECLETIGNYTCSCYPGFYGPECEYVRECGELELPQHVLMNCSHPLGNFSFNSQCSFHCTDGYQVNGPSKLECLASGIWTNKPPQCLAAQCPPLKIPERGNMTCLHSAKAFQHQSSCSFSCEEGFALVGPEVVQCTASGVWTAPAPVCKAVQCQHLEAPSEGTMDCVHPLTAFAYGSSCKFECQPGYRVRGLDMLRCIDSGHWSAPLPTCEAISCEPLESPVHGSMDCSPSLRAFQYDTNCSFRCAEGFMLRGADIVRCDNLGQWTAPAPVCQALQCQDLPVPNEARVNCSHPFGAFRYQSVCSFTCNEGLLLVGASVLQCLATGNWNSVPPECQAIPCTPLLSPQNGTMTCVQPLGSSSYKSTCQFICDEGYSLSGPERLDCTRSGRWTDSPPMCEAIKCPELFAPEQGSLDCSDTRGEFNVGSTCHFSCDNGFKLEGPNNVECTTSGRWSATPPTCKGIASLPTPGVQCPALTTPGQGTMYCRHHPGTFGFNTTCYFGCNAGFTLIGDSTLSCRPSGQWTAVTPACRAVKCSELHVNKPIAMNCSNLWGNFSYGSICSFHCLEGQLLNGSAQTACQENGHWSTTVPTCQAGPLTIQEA

P-selectin/Fc [2] = target: T1, P-selectin/Fc; assay: BLI; rhVim or rhRod (50 μg/mL) immobilised by amine coupling on AR2G sensors; P-sel/Fc or PSGL-1/Fc as analyte, 0–1,000 nM; DPBS; steady state analysis; details: both partners purified
P-selectin/Fc [3] = target: T1, P-selectin/Fc; assay: BLI; P-sel/Fc or PSGL-1/Fc (10 μg/mL) immobilised on anti-human IgG Fc (AHC) sensors; rhVim or rhRod as analyte, 0–1,000 nM; DPBS; steady state analysis; details: both partners purified
P-selectin/Fc [4] = target: T1, P-selectin/Fc; assay: BLI; blocking: P-sel/Fc on AR2G sensors placed into rhRod 0–1,000 nM (association, then dissociation in DPBS), then into 500 nM PSGL-1/Fc (Sino Biological); PSGL-1/Fc response against rhRod concentration, non-linear regression; in duplicate; details: both partners purified
[5] = target: the molecule itself; assay: SDS-PAGE in non-reducing and reducing conditions, Coomassie stain; purified protein; non-reduced against reduced
P-selectin/Fc [6] = target: T1, P-selectin/Fc; assay: BLI; separate set of experiments: room temperature aliquot of rhRod (1,000 nM) on immobilized P-sel/Fc, performed as above; DPBS; details: both partners purified

| Binder | Kd (P-selectin/Fc [1]) | Kd (P-selectin/Fc [2]) | Kd (P-selectin/Fc [3]) | IC50 (P-selectin/Fc [4]) | binding result [5] | Kd (P-selectin/Fc [6]) |
| --- | --- | --- | --- | --- | --- | --- |
| B1 | 240 ± 67 nM | – | – | – | – | – |
| B2 | – | 41 ± 6 nM | 10 ± 0.6 nM | 20 nM | binds | 280 ± 61 nM |
